In patent US7727960B2, “C5a receptor antagonists” (Jerini AG, priority 2003, dated 2010):

target: T1, human C5aR (CD88) (human, UniProt P21730 1-350); test: cell-based or functional assay
T1 sequence (looked up): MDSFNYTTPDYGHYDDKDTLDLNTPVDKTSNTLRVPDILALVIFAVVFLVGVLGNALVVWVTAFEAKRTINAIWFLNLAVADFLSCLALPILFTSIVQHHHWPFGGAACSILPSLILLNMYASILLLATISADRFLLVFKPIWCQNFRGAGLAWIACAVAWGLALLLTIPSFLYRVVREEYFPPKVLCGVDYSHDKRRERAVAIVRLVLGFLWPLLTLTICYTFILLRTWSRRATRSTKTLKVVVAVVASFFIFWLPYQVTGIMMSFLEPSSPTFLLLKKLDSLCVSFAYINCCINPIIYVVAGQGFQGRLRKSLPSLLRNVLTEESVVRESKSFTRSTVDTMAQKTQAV

| Substance | EC50, agonistic activity, enzyme release assay | IC50 activity group, enzyme release assay | IC50, functional assay |
| --- | --- | --- | --- |
| Ac-Ebw-Orn-Pro-cha-Trp-Phe-NH2 (peptide) | > 100000 nM | < 200 nM |  |
| Ac-Phe-Orn-Pro-cha-Bta-NH-CH(CH2OH)-CH2-Ph (peptide) |  | < 200 nM |  |
| FAc-Phe-Orn-Pro-cha-Bta-Phe-NH2 (peptide) |  | < 50 nM |  |
| Ac-Phe-Orn-Chy-hle-Pff-Phe-NH2 (peptide) |  | < 200 nM |  |
| CH3CH2CO-Phe-Orn-Pro-cha-Bta-Phe-NH2 (peptide) |  | < 50 nM |  |
| H-Bal-Phe-[Orn-Hyp-hle-Trp-Nle] (peptide) |  | < 200 nM |  |
| Ac-Phe-Orn-Pro-ctb-Eaa-Phe-NH2 (peptide) |  | < 50 nM |  |
| Ac-Phe-[Orn-Aze-cha-Trp-Nle] (peptide) |  | < 200 nM |  |
| Ac-Phe-Orn-Pro-cha-Bta-Dff-NH2 (peptide) |  | < 50 nM |  |
| H-Nip-Phe-Cit-Pro-hle-Bta-Phe-NH2 (peptide) |  | < 200 nM |  |
| Ac-Off-Orn-Pro-hle-Bta-Phe-NH2 (peptide) |  | < 50 nM |  |
| H-Phe-[Orn-Hyp-hle-Pff-Phe] (peptide) |  | < 200 nM |  |
| Ac-Phe-Orn-Pro-cha-Bta-1Ni-NH2 (peptide) |  | < 200 nM |  |
| Ac-Thi-[Orn-Pro-hle-Bta-Phe] (peptide) |  | < 200 nM |  |
| Ac-Phe-Orn-Pro-cha-Otf-Phe-NH2 (peptide) |  | < 200 nM |  |
| Ac-Phe-Orn-Pro-cha-Bta-Opa-NH2 (peptide) |  | < 200 nM |  |
| H-Phe-[Lys-Hyp-hle-Pff-Nle] (peptide) |  | < 200 nM |  |
| Ac-Gly-Thi-Orn-Aze-cha-Bta-Phe-NH2 (peptide) |  | < 50 nM |  |
| Ac-Phe-Cit-Ser-hle-Bta-Phe-NH2 (peptide) |  | < 200 nM |  |
| Ac-Phe-Orn-Aze-hle-Bta-Phe-NH2 (peptide) |  | < 50 nM |  |
| 3PP-Orn-Aze-cha-Bta-Phe-NH2 (peptide) |  | < 200 nM |  |
| H-Phe-[Orn-Ser-hle-Mcf-Leu] (peptide) |  | < 200 nM |  |
| Ac-Phe-Orn-Hyp-hle-Pff-Phe-NH2 (peptide) |  | < 200 nM |  |
| H-Phe-[Orn-Hyp-hle-Mcf-Leu] (peptide) |  | < 200 nM |  |

| Substance | EC50, agonistic activity, enzyme release assay | IC50 activity group, enzyme release assay | IC50, functional assay |
| --- | --- | --- | --- |
| Ac-Phe-Orn-Pro-cha-Bta-Mcf-NH2 (peptide) |  | < 200 nM |  |
| Ac-Ser-Phe-Orn-Aze-cha-Bta-Phe-NH2 (peptide) |  | < 20 nM |  |
| Ac-Phe-[Orn-Tic-cha-Trp-Nle] (peptide) |  | < 200 nM |  |
| H-Bal-Phe-[Orn-Pro-hle-Pff-Nle] (peptide) |  | < 200 nM |  |
| Ac-Pff-Orn-Pro-cha-Bta-Phe-NH2 (peptide) |  | < 50 nM |  |
| Ac-Phe-Orn-Pro-ctb-Bta-Phe-NH2 (peptide) |  | < 50 nM |  |
| Ac-Phe-Orn-Pip-cha-Trp-Phe-OH (peptide) |  | < 2000 nM |  |
| Ac-Phe-Orn-Pro-hle-Mcf-2Ni-NH2 (peptide) |  | < 200 nM |  |
| Ac-His-Phe-Orn-Aze-cha-Bta-Phe-NH2 (peptide) |  | < 200 nM |  |
| Ac-Mff-Orn-Pro-hle-Mcf-Mff-NH2 (peptide) |  | < 200 nM |  |
| Ac-Phe-Orn-Aze-cha-Bta-Phe-NH2 (peptide) |  | < 20 nM |  |
| Me-O-CO-Phe-Orn-Pro-cha-Bta-Phe-NH2 (peptide) |  | < 200 nM |  |
| Ac-Phe-Ffa-Pro-cha-Bta-Phe-NH2 (peptide) |  | < 50 nM |  |
| Ac-Phe-[Orn-NMeAla-cha-Trp-Arg] (peptide) |  | < 50 nM | 25 nM |
| Ac-Phe-[Orn-Hyp(CONH-CH2CH(OH)-CH2OH)-cha-Trp-Nle] (peptide) |  | < 200 nM |  |
| Ac-Phe-[Orn-Pro-cha-Pff-Nle] (peptide) |  | < 200 nM |  |
| Ac-Phe-Orn-Pro-omf-Bta-Phe-NH2 (peptide) |  | < 200 nM |  |
| Ac-Phe-Orn-Hyp-hle-Bta-Phe-NH2 (peptide) |  | < 200 nM |  |
| FH2C-CO-Phe-Orn-Pro-cha-Bta-Phe-NH2 (peptide) |  | < 50 nM |  |
| Ac-Phe-Fcn-Aze-cha-Bta-Phe-NH2 (peptide) |  | < 20 nM |  |
| Ac-Phe-[Orn-HyA-cha-Trp-Phe] (peptide) |  | < 200 nM |  |
| Ac-Gly-Phe-Orn-Aze-hch-Bta-Phe-NH2 (peptide) |  | < 200 nM |  |
| Ac-Phe-Orn-Pro-cha-Bta-Thi-NH2 (peptide) |  | < 20 nM |  |
| Ac-Phe-Orn-Pro-hle-Bta-5Ff-NH2 (peptide) |  | < 200 nM |  |

| Substance | EC50, agonistic activity, enzyme release assay | IC50 activity group, enzyme release assay | IC50, functional assay |
| --- | --- | --- | --- |
| Ac-Phe-Orn-Pro-cha-Bta-Phe-NH2 (peptide) | > 100000 nM | < 50 nM |  |
| Ac-Phe-Fco-Pro-cha-Bta-Phe-NH2 (peptide) |  | < 50 nM |  |
| Ac-Phe-Eec-Pro-cha-Bta-Phe-NH2 (peptide) |  | < 200 nM |  |
| H-Phe-[Orn-Ser-hle-Pff-Nle] (peptide) |  | < 50 nM |  |
| Ac-Phe-Orn-Pro-hle-Pff-Eaa-NH2 (peptide) |  | < 200 nM |  |
| Ac-Dab-Phe-Orn-Aze-cha-Bta-Phe-NH2 (peptide) |  | < 200 nM |  |
| H-Phe-[Orn-Pro-cha-Pff-Phe] (peptide) |  | < 200 nM |  |
| H-Phe-[Orn-Ser-hle-Trp-Nle] (peptide) |  | < 50 nM |  |
| Ac-Phe-OrE-Pro-cha-Bta-Phe-NH2 (peptide) |  | < 200 nM |  |
| Ac-Gly-Phe-Orn-Aze-chg-Bta-Phe-NH2 (peptide) |  | < 200 nM |  |
| Ac-Phe-Orn-Pro-hle-Mff-Phe-NH2 (peptide) |  | < 200 nM |  |
| Ac-Orn-Phe-Orn-Aze-cha-Bta-Phe-NH2 (peptide) |  | < 200 nM |  |
| Ac-Pff-Orn-Pro-hle-Bta-Phe-NH2 (peptide) |  | < 200 nM |  |
| Ac-Phe-Eep-Pro-cha-Bta-Phe-NH2 (peptide) |  | < 200 nM |  |
| Ac-Phe-[Orn-Chy-cha-Trp-Nle] (peptide) |  | < 200 nM |  |
| H-Phe-[Orn-Pro-hle-Pff-Phe] (peptide) |  | < 50 nM |  |
| Ac-Phe-Orn-Pro-hle-Bta-Phe-NH2 (peptide) |  | < 20 nM |  |
| Ac-Phe-[Orn-Pro-cha-Pff-Phe] (peptide) |  | < 200 nM |  |
| Ac-Phe-Orn-Pro-hle-Bta-phe-OH (peptide) |  | < 200 nM |  |
| Ac-Phe-[Orn-Hyp-Mmf-Trp-Nle] (peptide) |  | < 200 nM |  |
| Ac-Phe-Orn-Aze-cha-Bta-NH-CH2-CH2-Ph (peptide) |  | < 2000 nM |  |
| Ac-Phe-Orn-Pro-hle-Bta-Aic-NH2 (peptide) |  | < 200 nM |  |
| H-Phe-[Orn-Pro-hle-Ocf-Phe] (peptide) |  | < 200 nM |  |
| Ac-Phe-Cit-Pro-hle-Bta-Phe-NH2 (peptide) |  | < 50 nM |  |

| Substance | EC50, agonistic activity, enzyme release assay | IC50 activity group, enzyme release assay | IC50, functional assay |
| --- | --- | --- | --- |
| Ac-Phe-[Orn-Hyp(COCH2OCH2CH2OCH2CH2OCH3)-cha-Trp-Nle] (peptide) |  | < 200 nM |  |
| Ac-Phe-Orn-Pro-hle-Dff-Phe-NH2 (peptide) |  | < 200 nM |  |
| Ac-Phe-Cit-Hyp-hle-Bta-Phe-NH2 (peptide) |  | < 200 nM |  |
| H-Phe-[Orn-Ser-hle-Pff-Leu] (peptide) |  | < 200 nM |  |
| Ac-Phe-Cit-Pro-cha-Bta-Phe-NH2 (peptide) |  | < 200 nM |  |
| Ac-Phe-Orn-Pro-hle-Bta-Pff-NH2 (peptide) |  | < 200 nM |  |
| Bzl-[Orn-Pro-cha-Bta-Nle] (peptide) |  | < 200 nM |  |
| CH3-SO2-Phe-Orn-Aze-cha-Bta-Phe-NH2 (peptide) |  | < 50 nM |  |
| Ac-Phe-[Orn-Hyp-hle-Bta-Phe] (peptide) |  | < 200 nM |  |
| Ac-Phe-OrA-Pro-cha-Bta-Phe-NH2 (peptide) |  | < 200 nM |  |
| Ac-Phe-Orn-Pro-hle-Mmy-Phe-NH2 (peptide) |  | < 200 nM |  |
| Ac-Phe-Dab-Pro-cha-Bta-Phe-NH2 (peptide) |  | < 20 nM |  |
| Ac-Phe-Har-Pro-cha-Bta-Phe-NH2 (peptide) |  | < 50 nM |  |
| Ac-Thi-Orn-Aze-cha-Bta-Phe-NH2 (peptide) |  | < 20 nM |  |
| Ac-Phe-Orn-Pro-hle-Bta-Chg-NH2 (peptide) |  | < 200 nM |  |
| Ac-Phe-Paf-Pro-cha-Bta-Phe-NH2 (peptide) |  | < 2000 nM |  |
| Ac-Phe-Orn-Chy-cha-Bta-Phe-NH2 (peptide) |  | < 200 nM |  |
| Ac-Phe-Orn-Pro-cha-Bta-Cha-NH2 (peptide) |  | < 200 nM |  |
| Ac-Phe-Dab-Aze-hle-Bta-Phe-NH2 (peptide) |  | < 50 nM |  |
| Ac-Phe-Orn-Pro-hle-Bta-Egy-NH2 (peptide) |  | < 200 nM |  |
| Ac-Pff-Orn-Pro-hle-Mcf-Pff-NH2 (peptide) |  | < 200 nM |  |
| Ac-Phe-Orn-Pro-hle-Pff-Pff-NH2 (peptide) |  | < 200 nM |  |
| H-Phe-[Orn-Hyp-hle-Pff-Hle] (peptide) |  | < 200 nM |  |
